What all share (conditions): both partners purified
In assay [1] the target is T1, biotinylated multidomain FZD3 (C-terminally truncated, in detergent) (human, UniProt Q9NPG1, biotin (in vivo biotinylation of the Avi tag)).
T1 construct: human Frizzled-3 (FZD3), UniProt Q9NPG1; C-terminally truncated construct (CRD, linker and transmembrane domain); residues 26-517 are stated for the multidomain production construct, not expressly for the Avi-tagged one; The results call it 'full-length FZD3'; the methods say the biotinylated transmembrane constructs were C-terminally truncated; Functional assays in cells used wild type FZD3 …
The experiment in a line: BLI; Octet Red 96e; biotinylated multidomain FZD3 or FZD6 in detergent immobilised, nanobody or DEP in solution; 10 mM HEPES pH 7.5, 150 mM NaCl, 0.02% Tween 20, 0.005% GDN; 1:1 binding model. (Biolayer interferometry detects binding as a change in optical thickness at a sensor tip.)

Assay [2] concerns the target T2, biotinylated FZD6 (C-terminally truncated transmembrane construct, in detergent) (Homo sapiens, UniProt O60353, biotin (in vivo biotinylation of the Avi tag)).
T2 construct: Frizzled-6 (FZD6), C-terminally truncated transmembrane construct; the methods say C-terminal truncated, without limits; also called full length FZD6; source: HEK293T with biotin ligase, transfected, biotinylated in vivo, in detergent; not shown: Avi3, C-terminal, kept
The description is as above.

The target in assay [3] is T3, biotinylated FZD10 cysteine-rich domain (CRD) (Homo sapiens, UniProt Q9ULW2, biotin (in vivo biotinylation of the Avi tag)).
T3 construct: human Frizzled-10 (FZD10) cysteine-rich domain; One of 'all 10 human Frizzled CRDs'; also called FZD10 CRD; source: HEK293T constitutively expressing ER-localised biotin ligase, transfected, biotinylated in vivo; not shown: Avi3, C-terminal, kept
Put plainly: BLI; BLItz System; initial qualitative test of the 10 biotinylated human FZD CRDs binding to Nb8.

Assay [4] has as its target T4, biotinylated FZD8 cysteine-rich domain (CRD) (Homo sapiens, UniProt Q9H461, biotin (in vivo biotinylation of the Avi tag)).
T4 construct: human Frizzled-8 (FZD8) cysteine-rich domain; One of 'all 10 human Frizzled CRDs'; also called FZD8 CRD; source: HEK293T constitutively expressing ER-localised biotin ligase, transfected, biotinylated in vivo; not shown: Avi3, C-terminal, kept
The assay is described as above.

Assay [5] addresses T5, biotinylated FZD2 cysteine-rich domain (CRD) (Homo sapiens, UniProt Q14332, biotin (in vivo biotinylation of the Avi tag)).
T5 construct: human Frizzled-2 (FZD2) cysteine-rich domain; One of 'all 10 human Frizzled CRDs'; also called FZD2 CRD; source: HEK293T constitutively expressing ER-localised biotin ligase, transfected, biotinylated in vivo; not shown: Avi3, C-terminal, kept
The assay is described as above.

The target of assay [6] is T6, biotinylated FZD4 cysteine-rich domain (CRD) (Homo sapiens, UniProt Q9ULV1, biotin (in vivo biotinylation of the Avi tag)).
T6 construct: human Frizzled-4 (FZD4) cysteine-rich domain; One of 'all 10 human Frizzled CRDs'; also called FZD4 CRD; source: HEK293T constitutively expressing ER-localised biotin ligase, transfected, biotinylated in vivo; not shown: Avi3, C-terminal, kept
Described as above.

Assay [7] concerns the target T7, biotinylated FZD1 cysteine-rich domain (CRD) (Homo sapiens, UniProt Q9UP38, biotin (in vivo biotinylation of the Avi tag)).
T7 construct: human Frizzled-1 (FZD1) cysteine-rich domain; One of 'all 10 human Frizzled CRDs'; also called FZD1 CRD; source: HEK293T constitutively expressing ER-localised biotin ligase, transfected, biotinylated in vivo; not shown: Avi3, C-terminal, kept
The description is as above.

The target in assay [8] is T8, biotinylated FZD5 cysteine-rich domain (CRD) (Homo sapiens, UniProt Q13467, biotin (in vivo biotinylation of the Avi tag)).
T8 construct: human Frizzled-5 (FZD5) cysteine-rich domain; One of 'all 10 human Frizzled CRDs'; also called FZD5 CRD; source: HEK293T constitutively expressing ER-localised biotin ligase, transfected, biotinylated in vivo; not shown: Avi3, C-terminal, kept
The description is as above.

Assay [9] deals with T9, biotinylated FZD7 cysteine-rich domain (CRD) (Homo sapiens, UniProt O75084, biotin (in vivo biotinylation of the Avi tag)).
T9 construct: human Frizzled-7 (FZD7) cysteine-rich domain; One of 'all 10 human Frizzled CRDs'; also called FZD7 CRD; source: HEK293T constitutively expressing ER-localised biotin ligase, transfected, biotinylated in vivo; not shown: Avi3, C-terminal, kept
Described as above.

The target in assay [10] is T10, biotinylated FZD9 cysteine-rich domain (CRD) (Homo sapiens, UniProt O00144, biotin (in vivo biotinylation of the Avi tag)).
T10 construct: human Frizzled-9 (FZD9) cysteine-rich domain; One of 'all 10 human Frizzled CRDs'; also called FZD9 CRD; source: HEK293T constitutively expressing ER-localised biotin ligase, transfected, biotinylated in vivo; not shown: Avi3, C-terminal, kept
Described as above.

Assay [11] concerns the target T11, biotinylated FZD3 cysteine-rich domain (CRD) (human, UniProt Q9NPG1, biotin (in vivo biotinylation of the Avi tag)).
T11 construct: human Frizzled-3 (FZD3), UniProt Q9NPG1, cysteine-rich domain; residues 26-138 are stated for the FZD3 CRD production construct, not expressly for the Avi-tagged one; The limits 26-138 are told for the Twin-Strep construct; also called FZD3 CRD; Frizzled3 CRD; source: HEK293T constitutively expressing ER-localised biotin ligase, transfected, biotinylated in vivo; not shown: Avi3, C-terminal, kept
The experiment in a line: BLI; Octet Red 96e; biotinylated FZD3 or FZD6 CRD immobilised, Nb8 or Wnt5a in solution; 10 mM HEPES pH 7.5, 150 mM NaCl, 0.02% Tween 20, 0.005% GDN; 1:1 binding model.

T6 sequence (Q9ULV1 whole entry, looked up, the tested form may be a part): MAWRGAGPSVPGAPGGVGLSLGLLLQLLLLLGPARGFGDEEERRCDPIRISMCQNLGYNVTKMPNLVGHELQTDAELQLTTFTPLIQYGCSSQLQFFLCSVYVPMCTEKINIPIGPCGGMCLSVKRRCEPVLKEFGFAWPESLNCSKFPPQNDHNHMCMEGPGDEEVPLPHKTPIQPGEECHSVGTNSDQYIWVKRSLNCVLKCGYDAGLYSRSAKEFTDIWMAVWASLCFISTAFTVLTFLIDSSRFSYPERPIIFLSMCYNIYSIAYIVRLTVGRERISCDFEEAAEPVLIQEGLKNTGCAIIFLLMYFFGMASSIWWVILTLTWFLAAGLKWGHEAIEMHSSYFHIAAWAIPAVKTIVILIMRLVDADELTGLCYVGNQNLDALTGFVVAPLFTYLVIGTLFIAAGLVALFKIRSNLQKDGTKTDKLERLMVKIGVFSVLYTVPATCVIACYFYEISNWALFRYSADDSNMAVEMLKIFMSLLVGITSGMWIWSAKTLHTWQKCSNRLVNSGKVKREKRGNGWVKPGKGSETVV
T5 sequence (Q14332 whole entry, looked up, the tested form may be a part): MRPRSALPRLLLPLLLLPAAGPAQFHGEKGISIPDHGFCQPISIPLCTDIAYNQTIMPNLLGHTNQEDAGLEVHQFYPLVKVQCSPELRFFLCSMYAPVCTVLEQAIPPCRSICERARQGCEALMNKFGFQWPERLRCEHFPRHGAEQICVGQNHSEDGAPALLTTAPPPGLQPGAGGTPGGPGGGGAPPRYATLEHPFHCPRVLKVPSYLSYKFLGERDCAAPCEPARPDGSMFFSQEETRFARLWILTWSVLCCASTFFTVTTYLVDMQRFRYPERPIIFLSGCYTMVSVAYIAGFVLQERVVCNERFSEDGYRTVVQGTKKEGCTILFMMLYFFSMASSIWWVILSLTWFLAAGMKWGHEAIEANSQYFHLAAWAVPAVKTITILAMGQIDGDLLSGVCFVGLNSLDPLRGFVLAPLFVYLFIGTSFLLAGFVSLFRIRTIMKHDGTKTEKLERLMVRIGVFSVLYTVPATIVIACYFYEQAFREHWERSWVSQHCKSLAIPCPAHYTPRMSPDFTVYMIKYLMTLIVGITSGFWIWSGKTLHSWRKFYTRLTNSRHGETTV
T4 sequence (Q9H461 whole entry, looked up, the tested form may be a part): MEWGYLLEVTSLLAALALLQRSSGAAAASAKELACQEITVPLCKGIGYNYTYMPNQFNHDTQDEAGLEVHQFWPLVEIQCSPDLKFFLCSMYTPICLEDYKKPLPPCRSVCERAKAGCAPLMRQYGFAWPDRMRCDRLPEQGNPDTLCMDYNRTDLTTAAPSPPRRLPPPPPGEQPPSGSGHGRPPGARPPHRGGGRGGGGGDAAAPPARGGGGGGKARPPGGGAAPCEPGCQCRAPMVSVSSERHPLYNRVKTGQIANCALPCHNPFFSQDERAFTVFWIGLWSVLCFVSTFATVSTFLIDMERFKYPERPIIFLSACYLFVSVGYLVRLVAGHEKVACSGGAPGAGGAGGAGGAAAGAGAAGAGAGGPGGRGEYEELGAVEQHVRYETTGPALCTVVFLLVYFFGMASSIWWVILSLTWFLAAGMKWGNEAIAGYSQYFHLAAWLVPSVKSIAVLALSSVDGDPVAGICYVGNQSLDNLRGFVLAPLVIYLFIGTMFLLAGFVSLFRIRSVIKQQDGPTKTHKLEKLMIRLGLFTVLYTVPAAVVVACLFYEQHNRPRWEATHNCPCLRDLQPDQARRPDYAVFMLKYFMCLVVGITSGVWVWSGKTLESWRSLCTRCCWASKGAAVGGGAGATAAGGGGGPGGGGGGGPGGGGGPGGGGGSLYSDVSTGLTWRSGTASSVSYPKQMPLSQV
T7 sequence (Q9UP38 whole entry, looked up, the tested form may be a part): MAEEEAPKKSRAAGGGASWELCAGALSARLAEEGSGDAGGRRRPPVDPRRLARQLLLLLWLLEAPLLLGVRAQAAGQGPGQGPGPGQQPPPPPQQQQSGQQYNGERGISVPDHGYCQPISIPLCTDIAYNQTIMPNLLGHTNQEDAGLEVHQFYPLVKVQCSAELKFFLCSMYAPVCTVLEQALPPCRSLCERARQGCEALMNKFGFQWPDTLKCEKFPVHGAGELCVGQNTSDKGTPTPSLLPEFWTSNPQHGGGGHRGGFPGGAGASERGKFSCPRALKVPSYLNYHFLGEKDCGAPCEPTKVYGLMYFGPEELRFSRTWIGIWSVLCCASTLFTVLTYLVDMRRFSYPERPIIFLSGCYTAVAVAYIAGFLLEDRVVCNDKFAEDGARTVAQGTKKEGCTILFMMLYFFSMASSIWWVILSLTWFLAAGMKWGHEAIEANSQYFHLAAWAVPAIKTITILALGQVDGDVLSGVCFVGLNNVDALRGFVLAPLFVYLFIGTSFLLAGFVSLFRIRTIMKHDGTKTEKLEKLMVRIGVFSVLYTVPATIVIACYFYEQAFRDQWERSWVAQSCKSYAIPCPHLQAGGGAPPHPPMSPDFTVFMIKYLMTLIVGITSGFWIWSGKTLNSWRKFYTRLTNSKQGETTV
T2 sequence (O60353 19-706): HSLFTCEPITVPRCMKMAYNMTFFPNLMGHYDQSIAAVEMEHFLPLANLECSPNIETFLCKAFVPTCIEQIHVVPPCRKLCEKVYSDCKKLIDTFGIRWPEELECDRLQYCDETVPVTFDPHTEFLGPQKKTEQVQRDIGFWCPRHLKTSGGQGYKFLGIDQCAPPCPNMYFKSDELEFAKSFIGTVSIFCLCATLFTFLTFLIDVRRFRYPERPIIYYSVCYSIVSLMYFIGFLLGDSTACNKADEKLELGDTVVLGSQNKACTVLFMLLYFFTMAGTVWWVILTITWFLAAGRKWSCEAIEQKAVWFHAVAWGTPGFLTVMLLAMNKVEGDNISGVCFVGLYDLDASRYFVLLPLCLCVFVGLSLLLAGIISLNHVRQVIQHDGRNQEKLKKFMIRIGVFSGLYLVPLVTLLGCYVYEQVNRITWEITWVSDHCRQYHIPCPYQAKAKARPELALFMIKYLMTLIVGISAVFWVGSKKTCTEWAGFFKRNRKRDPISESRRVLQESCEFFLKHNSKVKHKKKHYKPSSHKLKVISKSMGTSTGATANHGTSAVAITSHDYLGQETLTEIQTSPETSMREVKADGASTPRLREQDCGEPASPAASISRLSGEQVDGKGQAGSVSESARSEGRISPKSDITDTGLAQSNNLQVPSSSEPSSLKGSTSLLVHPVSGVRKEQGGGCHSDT
T8 sequence (Q13467 whole entry, looked up, the tested form may be a part): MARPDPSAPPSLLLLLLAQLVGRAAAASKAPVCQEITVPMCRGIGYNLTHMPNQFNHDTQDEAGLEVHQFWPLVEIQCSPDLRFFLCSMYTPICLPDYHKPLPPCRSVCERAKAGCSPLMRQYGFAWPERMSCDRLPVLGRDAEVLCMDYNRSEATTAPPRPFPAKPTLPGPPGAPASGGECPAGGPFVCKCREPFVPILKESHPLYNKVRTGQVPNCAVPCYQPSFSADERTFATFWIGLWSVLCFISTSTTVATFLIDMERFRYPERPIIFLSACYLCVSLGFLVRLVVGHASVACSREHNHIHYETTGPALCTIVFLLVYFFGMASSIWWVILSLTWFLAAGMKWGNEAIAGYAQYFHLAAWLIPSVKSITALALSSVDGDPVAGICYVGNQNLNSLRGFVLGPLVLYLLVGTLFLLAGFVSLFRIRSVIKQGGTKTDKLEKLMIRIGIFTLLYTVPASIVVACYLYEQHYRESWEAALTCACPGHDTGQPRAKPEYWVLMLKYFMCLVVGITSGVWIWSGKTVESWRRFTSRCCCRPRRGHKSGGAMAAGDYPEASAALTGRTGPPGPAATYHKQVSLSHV
T10 sequence (O00144 whole entry, looked up, the tested form may be a part): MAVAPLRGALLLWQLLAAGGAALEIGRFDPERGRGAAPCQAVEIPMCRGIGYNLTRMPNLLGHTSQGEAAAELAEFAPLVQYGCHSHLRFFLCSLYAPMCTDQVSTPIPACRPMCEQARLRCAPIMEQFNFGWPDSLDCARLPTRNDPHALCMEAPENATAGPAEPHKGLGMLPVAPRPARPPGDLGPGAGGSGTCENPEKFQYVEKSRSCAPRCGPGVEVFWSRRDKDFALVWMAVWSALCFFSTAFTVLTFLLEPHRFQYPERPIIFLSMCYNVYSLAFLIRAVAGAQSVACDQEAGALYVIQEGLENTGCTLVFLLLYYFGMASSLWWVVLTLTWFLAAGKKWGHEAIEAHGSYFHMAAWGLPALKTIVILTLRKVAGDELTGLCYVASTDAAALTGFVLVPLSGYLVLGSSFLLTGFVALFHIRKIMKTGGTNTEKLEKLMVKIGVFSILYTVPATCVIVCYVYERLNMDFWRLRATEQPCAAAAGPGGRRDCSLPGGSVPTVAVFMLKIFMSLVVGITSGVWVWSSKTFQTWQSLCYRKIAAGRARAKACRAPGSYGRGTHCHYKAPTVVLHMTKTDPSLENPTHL
T3 sequence (Q9ULW2 whole entry, looked up, the tested form may be a part): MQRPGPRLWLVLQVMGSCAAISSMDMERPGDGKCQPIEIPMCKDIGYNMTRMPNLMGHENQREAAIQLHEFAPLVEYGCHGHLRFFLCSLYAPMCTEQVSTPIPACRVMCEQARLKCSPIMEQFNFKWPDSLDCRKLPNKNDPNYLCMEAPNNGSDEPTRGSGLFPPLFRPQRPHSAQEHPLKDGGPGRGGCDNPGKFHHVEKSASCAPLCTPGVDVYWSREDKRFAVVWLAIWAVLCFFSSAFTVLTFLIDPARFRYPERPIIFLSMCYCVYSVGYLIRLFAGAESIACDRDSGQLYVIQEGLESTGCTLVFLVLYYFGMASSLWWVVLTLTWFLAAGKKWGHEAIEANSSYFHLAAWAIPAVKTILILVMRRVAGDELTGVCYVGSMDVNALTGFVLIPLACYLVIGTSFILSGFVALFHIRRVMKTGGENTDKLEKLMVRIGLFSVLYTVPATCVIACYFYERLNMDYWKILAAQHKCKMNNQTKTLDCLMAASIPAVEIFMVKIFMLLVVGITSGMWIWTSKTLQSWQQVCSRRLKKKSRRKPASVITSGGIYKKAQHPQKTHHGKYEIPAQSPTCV

B1: Nb1 (VHH)
VHH: QVQLVESGGGLVQAGGSLRLSCAASGNIFSINAMGWYRQAAGKQRELVAAITSGGSTNYADSVKGRFTISRDNAKNTVYLQMNSLKPEDTAVYYCNADEWALGEHWGQGTQVTVSS
notes: also called nanobody 1; family 1 (Nb1, 3-6)
As to B1, the binding result in [1] is on record as “binds”.

B2: Nb9 (VHH)
VHH: QVQLVESGGGLVQAGGSLRLSCTASGRIFNLDVMGWYRQAPGKRRELVADITSGGKINYADSVKGRFTISRDNTKDTVYLQMNSLKPEDTAVYYCNAEVEWLDMDYWGKGTQVTVSS
notes: most of the chain also in PDB 8QW4 (as the megabody); also called nanobody 9; family 3
As for B2, the Kd (as a rule, the equilibrium constant for the complex coming apart) is 32 ± 2.8 nM in assay [1] and 410 ± 41 nM in assay [2].

B3: Nb8 (VHH)
VHH: QVQLVESGGGLVQAGGSLRLSCAASGSISSINAMGWYRQAPGKQRELVAAITSGGSTNYADSVKGRFTISRDNAKNTVYLQMNSLKPGDTAVYYCNLLYYIDYVEYDYWGQGTQVTVSS
notes: also in PDB 8Q7O; residues 1-119 are named for the Nb8 module of the surrogate; Untagged in the crystallisation sample; also called nanobody 8; family 2; source: co-expressed untagged with FZD3 CRD in HEK293S GnTI- cells (for crystallisation)
As for B3, the binding result in assay [3], in [4], in assay [5], in assay [6], in assay [7] and in [8] was “no binding” each time. Moreover, the binding result in assay [9] and in [10] was “no binding” throughout. Further, binding in assay [11] was put at a Kd of 19.2 ± 1.2 nM.

(Values after publication PMC11341715, “Structural insights into Frizzled3 through nanobody modulators” (Nature Communications, 2024).)
